From publication PMC8988012 (The Journal of Biological Chemistry, 2022) come the findings set out here.

Data set [1] deals with T1, His-Zyxin (wildtype) (UniProt Q15942 1-572).
T1 sequence (looked up): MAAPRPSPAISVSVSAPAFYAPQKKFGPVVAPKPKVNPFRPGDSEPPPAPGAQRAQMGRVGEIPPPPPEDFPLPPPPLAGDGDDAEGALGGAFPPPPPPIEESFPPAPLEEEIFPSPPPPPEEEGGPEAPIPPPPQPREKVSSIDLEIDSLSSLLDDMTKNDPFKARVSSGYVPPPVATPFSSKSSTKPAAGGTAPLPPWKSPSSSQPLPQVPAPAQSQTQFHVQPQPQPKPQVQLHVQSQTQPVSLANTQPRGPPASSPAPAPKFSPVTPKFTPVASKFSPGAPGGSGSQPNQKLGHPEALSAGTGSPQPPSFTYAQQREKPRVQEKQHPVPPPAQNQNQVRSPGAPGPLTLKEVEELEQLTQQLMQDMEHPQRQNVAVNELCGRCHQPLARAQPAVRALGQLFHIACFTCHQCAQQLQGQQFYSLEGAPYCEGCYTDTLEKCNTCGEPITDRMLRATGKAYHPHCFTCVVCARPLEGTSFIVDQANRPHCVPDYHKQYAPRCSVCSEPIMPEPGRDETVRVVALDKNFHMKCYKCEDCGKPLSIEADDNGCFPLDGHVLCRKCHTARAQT
The experiment in a line: pull-down.

Data set [2] can be described thus: GFP-Zyxin1–350 microscopy, U2OS, ± mCherry-14-3-3γ. Particulars: glycan changed form; control: Zyxin (1–350), Ser-169.
The nature of data set [3]: mCherry-Zyxin microscopy, U2OS, ± GFP-14-3-3γ. Particulars: glycan changed form; control: wild type.

B1: GST-14-3-3γ (natural protein, UniProt P61981 1-247, looked up)
chain: MVDREQLVQKARLAEQAERYDDMAAAMKNVTELNEPLSNEERNLLSVAYKNVVGARRSSWRVISSIEQKTSADGNEKKIEMVRAYREKIEKELEAVCQDVLSLLDNYLIKNCSETQYESKVFYLKMKGDYYRYLAEVATGEKRATVVESSEKAYSEAHEISKEHMQPTHPIRLGLALNYSVFYYEIQNAPEQACHLAKTAFDDAIAELDTLNEDSYKDSTLIMQLLRDNLTLWTSDQQDDDGGEGNN
For the molecule B1, the binding result in data set [1] was “binds”.

B2: Zyxin: S169C (protein)
parent chain: MAAPRPSPAISVSVSAPAFYAPQKKFGPVVAPKPKVNPFRPGDSEPPPAPGAQRAQMGRVGEIPPPPPEDFPLPPPPLAGDGDDAEGALGGAFPPPPPPIEESFPPAPLEEEIFPSPPPPPEEEGGPEAPIPPPPQPREKVSSIDLEIDSLSSLLDDMTKNDPFKARVSSGYVPPPVATPFSSKSSTKPAAGGTAPLPPWKSPSSSQPLPQVPAPAQSQTQFHVQPQPQPKPQVQLHVQSQTQPVSLANTQPRGPPASSPAPAPKFSPVTPKFTPVASKFSPGAPGGSGSQPNQKLGHPEALSAGTGSPQPPSFTYAQQREKPRVQEKQHPVPPPAQNQNQVRSPGAPGPLTLKEVEELEQLTQQLMQDMEHPQRQNVAVNELCGRCHQPLARAQPAVRALGQLFHIACFTCHQCAQQLQGQQFYSLEGAPYCEGCYTDTLEKCNTCGEPITDRMLRATGKAYHPHCFTCVVCARPLEGTSFIVDQANRPHCVPDYHKQYAPRCSVCSEPIMPEPGRDETVRVVALDKNFHMKCYKCEDCGKPLSIEADDNGCFPLDGHVLCRKCHTARAQT
As to B2, the “other: 14-3-3γ-induced nuclear localisation” value in data set [2] and in data set [3] was “no change” throughout.
